What was measured:
Hfq:D9A-S38W = Hfq:D9A-S38W (Escherichia coli, UniProt P0A6X3 1-102, D9A;S38W); assay: tryptophan fluorescence quenching
Hfq:E18A-S38W = Hfq:E18A-S38W (Escherichia coli, UniProt P0A6X3 1-102, E18A;S38W); assay: tryptophan fluorescence quenching

GUGGUCAGUCGAGUGG (ssRNA) [oligo C]: binds (Hfq:D9A-S38W); binds (Hfq:E18A-S38W).

— publication PMC4624489
